Test system: K4 kissing-loop RNA reporter
Assay: apparent KD of K4 kissing-loop reporter; higher = weaker reporter binding
Conditions: Eterna round: R107; input ligand: none
Experimental: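 RNA-MaP round R107: designed RNA switches with theophylline, tryptophan, arginine or FMN aptamers are transcribed on-chip within common flanks. They are titrated with a labelled K4 kissing-loop RNA reporter in RNA-MaP buffer (100 mM Tris pH 7.5, 80 mM KCl, 4 mM MgCl2), without ligand or with the indicated ligand. Median apparent KD per design.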
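Note: bound reporter read as fluorescence of individual clusters on recovered sequencing chips by microscopy, with normalized cluster intensities fitted with a binding model.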

Sequence | apparent KD of K4 kissing-loop reporter [nM]
AAACAUUGGUCUGAUACCAGCUUGAUCGGAAACGAUCUGCUGGAGUGAUGUUCCAAGUAAAGCCCUUGGCAGCAGACCGAUGAAA [MAT - Same State Theophlline B - Mod of Eli - D16] | 149
AGAUUCGGCACGGCCGCCACUUCCGGUGGCUGGUGUCAUGGUGCGCGUGAGUGAUGUUUAUGUGGGAGGACCGGGUGUUGAGUCU [whbob_Ex_Tryp_B_w43] | 898
CCAUUCAUUUACGAUACCAGUCUAAUAUAUUUGAUCAAAACCCUCGCCGAGUGAUGUUCGGACCCUUGGCAGCGUCUGGGACAGG [eesetmullin] | 503
UACUAUAGUGAUGUUAUAGAUAAACCAGAUACCAGUGUAACAUAACACCCUUGGCAGCUGAUGAGGGAACAUAUGAAAACAUAUG [AstroSTH-A#6newdesignED4.78] | 256
UUGAGGGAGAAUUAUAGUGAUGUUAUAAAGAAGGAUAUCCAAAGAAGGAGAAGGUCUAAGAGGGAAGGGAGGGAGGGAGGGAGGG [ExFMNA.C] | 281
GGUAGUGCUAGCGAUACCAGUCAUAUCGCUCUGGAGUGAUGUUCCGGAACGUGCGGAGAAGACCCUUGGCAGCGCUUGACUGGAA [Exclusion Theophylline B GF6] | 574
ACGCGCGCGAGUGAUGUUCGGAGCGGCUGGCAGGAUAUGGAGCAAUCCAGAAGGGUCGUGGCUGCUGGUAGGAAACUACUGGCAG [#2 Exclusion - FMN A Attempt #3 (HarryS)] | 350
UGAUAGGACAGAAGGAGCGGGAGUGAUGUUCCCAAAAGGGUAAGGUGUCAAAAGACACCCUCCCAGGUAGGUCGCUGUCCUAUCU | 154
GUAGCACUCGAUAGUGAUGUUAUCGAGGGCAAGGAUAUCACCUCAGUGAGAAGGUGUCCUUGAUAACUGCUACGGGAAUAUCCCA [Omei KL FMN A Exc D v8] | 101
CUUCGAUUAACAGAUACCAGUCAUACUGGAGCCUCACUCGAGUGAGUGAUGUUCACUUGAGACCCUUGGCAGCUGUUAGUCGAAG [Theo B Ex t1a] | 89.6
AGUGCACUGUCAGGAUAUAUACAGUGAUGUUGUGUAUGUCAGCAAGUCAAAGACUUGCUAUUUUGUAUAGAAGGGACUGUGUACA [whbob_Ex_FMNB__2th222] | 294
CCAUCGCUAUUCGAUACCAGCCAAGAGGUCUUUGGCCUCUUAUUGGAGUGAUGUUCCAUUGGCCCUUGGCAGCGAAUAGUGAUGG [Theophylline B K4 17] | 343
UAUAGGGAUAGUGAUGUUAUCCCAUGUGAUACCAGUGCCAUCCAACACCCUUGGCAGCAUACGGGCAGUGAUGUUGUUCUUGGUA [Exclusion Theophylline A GF 14] | 99.1
UGUCAUUGGUCGGCCGCCACUUGAAGGUCAAAGACCAUAGAGUGAUGUUCUAAGACGAAAGUCACGAGGACCGGGACCGAUGACU [TrypBS 4 #SwitchBubble #K4Middle] | 114
UAGGAGUGAUGUUCCUUUAGCAGGUAGGAAGGAGCGCCCAUUUGGGCAGGUAGGUCGCCUACUGGCCCUAAGUUAAACCUUAGGC [KL-SSArg-A12] | 146
AAACAUCACUGGGAGUGAUGUUCUCAGUGACGAGGACCGGUACGGCCGCCACUCGCGAGAGAUAUAGUCUAGUAUUGACUGCAUU [Excl Tryptophan A V11] | 231
UUUAUUAAGACGGCCGCCACUGAUUCAGAGUGAUGUUCUGAUAAAAUUUUAGAUAAUAAUAACAGCAGGACCGGGUCAAUUAUUA [JR_SSTryptoB_Sub014] | 238
UGGAGUUGACGAAAAGUCAACUCCUGAGAAGGAGCGGACGAAAGUCCAGGUAGGUCGCUCACUGCCAGUGAUGUUGGUAAAUAAA [#OpenEnded 1 - Direct theophylline transfer] | 113
AAAGCUCUAUAGAGCAAGAGGUCAACUGAUACCAGAGGCUAUAGCCUCCCUUGGCAGCGGAACGAGUGAUGUUCGAGACCUCAAA [AK6.1 SS Theophylline A] | 1610
AAGCAGUCACUCGUAGCCAUCGAAGAUGGUCGAGGACCGGUACGGCCGCCACUCGGAGUGAUGUUCCGAAGACUGCAAAAUAAAA | 337
UGUGUUGUUUUGAUGUUUGGUGUUGCAUGGCAGGAUAUCGUAGAGGCGAGAAGGGCUUUUGAGCGGUAUGAGUGAUGUUUGUAGG [p,,mmullin] | 441

Same assay, conditions: Eterna round: R107; input ligand: theophylline 20 uM

Sequence | apparent KD of K4 kissing-loop reporter [nM]
UUUUUAAUCGCAGAUACCAGUCCAGAAUAAAUACUAUAGUGAUGUUAUAAAUAAGGAAAGGACCCUUGGCAGCUGUACUAUAUUU [AstrosSsTheB#7] | 372
AACACUCAACGGAGUGAUGUUCUGGAAAACCGAGGACCGGUACGGCCGCCACUCGGAAAUGAGUGAGUCCUACGAAAAGUAGGAC [Omei inspired 2] | 157
AAUUUUAAUAAUAAAUAAUAAAUAAAUGAUACCAGUAUUUUUUUUUACCCUUGGCAGCGUAUAUAAGGGCAGUGAUGUUGUCAGA [whbob_SS_Theo_A_w59] | 232
AGAUGUUCCUGGGAUACCAGUCGGAGUCUCAGAGCUCGGAGUGAUGUUCUGGGAUGUUUCGGCCCUUGGCAGCUCUGGGACUCCC [#2 Exclusion - Theophylline B Attempt #24 (HarryS)] | 735
GGGCGUGGCGCGGCCGCCACUGCGCCUGGGUGCUCGCUGAGUGAUGUUCGUCGGCGGUUGGGUGGUAGGACCGGGUGCUGGUCGG [BDazzled - #11 SS Tryptophan B] | 517
CGUGAAGCCCAGAGGUGAUGUAUAGUAUCGCGAGGACCGGUACGGCCGCCACUCGUGAAGAGAAAGGAGUGAUGUUCCGUAAUGG | 406
AAUAAAAUCACGGCCGCCACUAAUGCUAGUAUUAGCAGUGAUGUUGCUAUGUAUAUUUUAUUUAAUAGGACCGGGUGAAUAUUUA [#23 K4 Tryptophan B Exclusion] | 308
AUUAAUUUCAGAGGAUAUCGUAUUAAUAUUUUAUCUAUCUAUAUAUGCAGUGAUGUUGCAAUAAUUCGAGAAGGCUGAUUUAUAA [JR_ExcFMNB_Sub009] | 91.8
AAAUUUAUAUUAGAUACCAGUAUUUUGAAUGUUUAUUAUGACAAGAGUGAUGUUCUUGUAUGCCCUUGGCAGCUGGUAUGGGUUU [KL-XTheo-B23] | 113
AAGGUUGUGCAUGGGAGUGAUGUUCCCAGGCAGGAUAUCGCUCACGCGAGAAGGGCUAGCACAACCGCUCAAGAAACUUGAGCAA [Omei KL FMN A SS C v4] | 116
UCCAUGCGCGCACGGUACUUGCCCGCAUAUCGAGGACCGGUACGGCCGCCACUCGUGCCAGUGAUGUUGGCCGGAGAGCCUUAUG [theeternabot_sameState_KL_Trp_A_22] | 449
UGACAUUGCUCAGAUACCAGACUUGAGGAUCACCCAGGUGCCAAAUAAACGUACAUAAAAGUCCCUUGGCAGCUGAGCAAUGUCU [TheoBX 11] | 85.8
CAUGUGUCUGGAAGGAGCGCGGGUUGGUUAAACACUGUCGCGGGCCAGUGAUGUUGGAAUCCGCAGGUAGGUCGCCAGCCACUUG [Araton] | 533
AAGAGGACCAACAUCACUAGUCCUCGAAUACGAGGACCGGUACGGCCGCCACUCGAUAACUUGCAGUGAUGUUGCAAGUAAGAAU [(T)''-(K)'-(T)'-(T1)-(T2)-(K1)-(K2)_Design3] | 345
CCUAUCUCAUACGAUACCAGUCUAUUAAAACGAGUGAUGUUCGAAAAUUUGCCAUAUAAUGACCCUUGGCAGCGUAUGGGAUAGG [Ex Theophylline B K4 8] | 211
AGUGGACGUGUCCGGAGUGAUGUUCCGGAUACCAGACACGAAAGUGUCCCUUGGCAGCAGGAGUGAUGUUCCGGCGUUCACUAAA [Omei KL Theo A Exc B v3] | 347

Sequence | apparent KD of K4 kissing-loop reporter [nM]
UAAUGCAUGACGGCCGCCACUAGUACUGGAGUGAUGUUGUGGUACGGCGGCAAUAUAGGGUGGACUAGGACCGGGUCAUGCAUAU [KL-XTryp-B12 #analogue] | 380
UGUCAUUGGUCGGCCGCCACUGGACCGGGUAUAAUCCCAGUGAUGUUGGUAAAAUACGGCCGCCACAGGACCGGGACCGAUGACU [TrypBS 15 #DoubleAptamer #SwitchBubble #K4Middle] | 215
AAUAAAAUCACGGCCGCCACUGAUAUCCAUAUUAGGAGUGAUGUUCCUUUGACUAUAUAAUUUUACAGGACCGGGUGAAUAUUUA [JR_Nu_SSTryptoB_Sub027] | 131
CCCAAGGGCGAACCGGUAUGAUCACCGGAUACCAGAGGCGAAAGCCUCCCUUGGCAGCCGGUUGUAGUGAUGUUACACUGGUUCU | 118
GUGAAGGAGCUGCAGUGAUGUUGCAGAGACUAGGAUAUCAGGAAACUGAGAAGGAGUCAACUCCUUCACCUAGACUGCAACAUAA [[F]''-[K1]-[K2]-[F1]-[F2]-[F2]'-[F1]'-[K]'_Design3] | 75.7
AAACAUUGGUCUGAUACCAGCUUGAUCGGAAACGAUCUGCUGGAGUGAUGUUCCAAGUAAAGCCCUUGGCAGCAGACCGAUGAAA [MAT - Same State Theophlline B - Mod of Eli - D16] | 192
AGAUUCGGCACGGCCGCCACUUCCGGUGGCUGGUGUCAUGGUGCGCGUGAGUGAUGUUUAUGUGGGAGGACCGGGUGUUGAGUCU [whbob_Ex_Tryp_B_w43] | 592
CCAUUCAUUUACGAUACCAGUCUAAUAUAUUUGAUCAAAACCCUCGCCGAGUGAUGUUCGGACCCUUGGCAGCGUCUGGGACAGG [eesetmullin] | 403
UACUAUAGUGAUGUUAUAGAUAAACCAGAUACCAGUGUAACAUAACACCCUUGGCAGCUGAUGAGGGAACAUAUGAAAACAUAUG [AstroSTH-A#6newdesignED4.78] | 215
UUGAGGGAGAAUUAUAGUGAUGUUAUAAAGAAGGAUAUCCAAAGAAGGAGAAGGUCUAAGAGGGAAGGGAGGGAGGGAGGGAGGG [ExFMNA.C] | 97.1
GGUAGUGCUAGCGAUACCAGUCAUAUCGCUCUGGAGUGAUGUUCCGGAACGUGCGGAGAAGACCCUUGGCAGCGCUUGACUGGAA [Exclusion Theophylline B GF6] | 538
ACGCGCGCGAGUGAUGUUCGGAGCGGCUGGCAGGAUAUGGAGCAAUCCAGAAGGGUCGUGGCUGCUGGUAGGAAACUACUGGCAG [#2 Exclusion - FMN A Attempt #3 (HarryS)] | 330
UGAUAGGACAGAAGGAGCGGGAGUGAUGUUCCCAAAAGGGUAAGGUGUCAAAAGACACCCUCCCAGGUAGGUCGCUGUCCUAUCU | 175
GUAGCACUCGAUAGUGAUGUUAUCGAGGGCAAGGAUAUCACCUCAGUGAGAAGGUGUCCUUGAUAACUGCUACGGGAAUAUCCCA [Omei KL FMN A Exc D v8] | 106
CUUCGAUUAACAGAUACCAGUCAUACUGGAGCCUCACUCGAGUGAGUGAUGUUCACUUGAGACCCUUGGCAGCUGUUAGUCGAAG [Theo B Ex t1a] | 106

Reference: the supplement of paper PMC9170038
